The values below come from patent US8840892B2, “Method of administering antibiotic therapy for treating intracellular infectious diseases” (Universidad Nacional Autónoma de México, priority 2003, dated 2014).

The conditions of series [1]: mouse, in vivo.
For a further series, the system named is PGE formation (COX-2). Description: inhibition of PGE formation by selective COX-2 inhibitors.
Series [2] has as its system Mycobacterium tuberculosis. Description: experimental model of pulmonary tuberculosis in BALB/c mice. Format: in vivo.
In the next series the test system is TGF-β. The note with it: recombinant soluble form, in vitro; cited from earlier work.

Regarding `COc1ccc2c(c1)c(CC(=O)O)c(C)n2C(=O)c1ccc(Cl)cc1` [indometacine], the gastric side effect entry in series [1] is recorded as “extensive erosive gastritis”.

`O=C(O)c1cccnc1Nc1cccc(C(F)(F)F)c1` [niflumic acid, reference compound]: in the series on PGE formation (COX-2), the “inhibition of the formation of PGE” value is on record as 98%. Also, in series [2] (mouse, in vivo), the “bacteria colony forming units (CFU) in lung” value was “decreased significantly”; the “decrease of the area affected by pneumonia in relation to the control group” value stood at 25%; the “expression of IL-2, TNF-α, IFN-γ and nitric acid synthetase (increase) and interleukin 10 (decrease)” value was “same pattern”.

B1: soluble betaglycan: soluble (recombinant) ectodomain of betaglycan, TGF-β type III receptor; natural antagonist of TGF-β (protein, UniProt Q03167 21-787, looked up)
extracellular domain: GPEPGALCELSPVSASHPVQALMESFTVLSGCASRGTTGLPQEVHVLNLRTAGQGPGQLQREVTLHLNPISSVHIHHKSVVFLLNSPHPLVWHLKTERLATGVSRLFLVSEGSVVQFSSANFSLTAETEERNFPHGNEHLLNWARKEYGAVTSFTELKIARNIYIKVGEDQVFPPKCNIGKNFLSLNYLAEYLQPKAAEGCVMSSQPQNEEVHIIELITPNSNPYSAFQVDITIDIRPSQEDLEVVKNLILILKCKKSVNWVIKSFDVKGSLKIIAPNSIGFGKESERSMTMTKSIRDDIPSTQGNLVKWALDNGYSPITSYTMAPVANRFHLRLENNAEEMGDEEVHTIPPELRILLDPGALPALQNPPIRGGEGQNGGLPFPFPDISRRVWNEEGEDGLPRPKDPVIPSIQLFPGLREPEEVQGSVDIALSVKCDNEKMIVAVEKDSFQASGYSGMDVTLLDPTCKAKMNGTHFVLESPLNGCGTRPRWSALDGVVYYNSIVIQVPALGDSSGWPDGYEDLESGDNGFPGDMDEGDASLFTRPEIVVFNCSLQQVRNPSSFQEQPHGNITFNMELYNTDLFLVPSQGVFSVPENGHVYVEVSVTKAEQELGFAIQTCFISPYSNPDRMSHYTIIENICPKDESVKFYSPKRVHFPIPQADMDKKRFSFVFKPVFNTSLLFLQCELTLCTKMEKHPQKLPKCVPPDEACTSLDASIIWAMMQNKKTFTKPLAVIHHEAESKEKGPSMKEPNPISPPIFHGLDTLTV
modifications: extracellular domain
With B1, the “neutralization of the effects of TGF-β” value in the series with TGF-β is recorded as “potent neutralizing agent”. Further, the “extent of pneumonia (in words)” value in series [2] (advanced phase of infection) is listed as “increased”. The “bacteria colony forming units (CFU) in lung” value in series [2] (after 30 days of treatment, vs untreated control) is listed as “decreased significantly”. In series [2] (after 60 days of treatment), the “CFU less than control group” value was found to be 50%. Besides, the “more pneumonia than the control group” value in series [2] (after two months of treatment, increase vs untreated control) worked out at 30%. For the same molecule, the “bacillary load / amount of tuberculosis bacilli in the lung (in words)” value in series [2] (intraperitoneal, advanced phase of the disease) is reported as “significant decrease”.
